T1: human THAP1 (THanatos-Associated-Protein-1), full length (human, UniProt Q9NVV9 1-213)
T1 construct: these tags are not written into the chain; also called hTHAP1; THAP1 wild type
T1 sequence: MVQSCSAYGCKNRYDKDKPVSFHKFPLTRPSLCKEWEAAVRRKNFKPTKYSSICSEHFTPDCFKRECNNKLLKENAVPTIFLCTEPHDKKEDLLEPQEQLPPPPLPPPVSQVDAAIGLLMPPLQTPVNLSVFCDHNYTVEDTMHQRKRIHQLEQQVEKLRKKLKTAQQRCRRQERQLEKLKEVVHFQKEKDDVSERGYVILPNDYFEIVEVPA

T2: human THAP3, full length (human, UniProt Q8WTV1 1-239)
T2 construct: Two-hybrid fusion or 35S-labelled in vitro translation product
T2 sequence: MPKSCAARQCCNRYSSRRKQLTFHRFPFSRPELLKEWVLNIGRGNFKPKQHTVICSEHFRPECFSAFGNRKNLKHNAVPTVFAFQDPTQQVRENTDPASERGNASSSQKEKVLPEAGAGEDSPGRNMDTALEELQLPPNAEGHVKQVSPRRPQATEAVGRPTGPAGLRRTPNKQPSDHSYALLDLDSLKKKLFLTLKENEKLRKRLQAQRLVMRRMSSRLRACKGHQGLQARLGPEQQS

T3: THAP1-C2 deletion mutant (amino acids 120-213) (human, UniProt Q9NVV9 120-213)
T3 construct: Gal4 fusion, in vitro translation product or GFP fusion according to assay
T3 sequence: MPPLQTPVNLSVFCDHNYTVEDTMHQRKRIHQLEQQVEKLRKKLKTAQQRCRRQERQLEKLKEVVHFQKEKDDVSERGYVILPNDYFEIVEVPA

T4: THAP1-C3 deletion mutant (amino acids 143-213) (human, UniProt Q9NVV9 143-213)
T4 construct: Gal4 fusion, in vitro translation product or GFP fusion according to assay
T4 sequence: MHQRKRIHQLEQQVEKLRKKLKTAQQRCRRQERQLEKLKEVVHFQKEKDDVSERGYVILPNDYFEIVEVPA

T5: THAP1-N1 deletion mutant (amino acids 1-90) (human, UniProt Q9NVV9 1-90)
T5 construct: Gal4 fusion, in vitro translation product or GFP fusion according to assay; also called zinc finger domain of THAP1
T5 sequence: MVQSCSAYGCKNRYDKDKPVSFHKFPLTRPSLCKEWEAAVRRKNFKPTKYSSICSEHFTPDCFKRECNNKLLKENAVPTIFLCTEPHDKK

T6: THAP1-N2 deletion mutant (amino acids 1-166) (human, UniProt Q9NVV9 1-166)
T6 construct: Gal4 fusion, in vitro translation product or GFP fusion according to assay
T6 sequence: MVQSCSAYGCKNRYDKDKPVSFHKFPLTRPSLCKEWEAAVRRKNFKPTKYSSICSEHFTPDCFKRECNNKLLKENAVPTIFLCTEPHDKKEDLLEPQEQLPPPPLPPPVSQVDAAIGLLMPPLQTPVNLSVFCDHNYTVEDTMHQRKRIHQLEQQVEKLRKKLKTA

T7: THAP1-N3 deletion mutant (amino acids 1-192) (human, UniProt Q9NVV9 1-192)
T7 construct: Gal4 fusion, in vitro translation product or GFP fusion according to assay
T7 sequence: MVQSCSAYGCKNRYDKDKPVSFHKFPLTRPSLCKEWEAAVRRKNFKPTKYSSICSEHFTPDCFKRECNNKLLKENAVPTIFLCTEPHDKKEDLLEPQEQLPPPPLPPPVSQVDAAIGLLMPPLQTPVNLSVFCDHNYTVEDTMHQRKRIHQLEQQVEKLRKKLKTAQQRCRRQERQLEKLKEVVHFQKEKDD

T8: THAP1-C1 deletion mutant (amino acids 90-213) (human, UniProt Q9NVV9 90-213)
T8 construct: Gal4 fusion, in vitro translation product or GFP fusion according to assay; also called THAP1-CL; THAP1ΔTHAP
T8 sequence: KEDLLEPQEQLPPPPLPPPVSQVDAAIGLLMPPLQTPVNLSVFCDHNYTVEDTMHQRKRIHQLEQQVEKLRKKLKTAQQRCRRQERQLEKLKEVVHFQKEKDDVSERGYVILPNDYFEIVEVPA

T9: THAP1ΔQRCRR mutant (deletion of residues 168-172) (human, UniProt Q9NVV9 1-213)
T9 sequence: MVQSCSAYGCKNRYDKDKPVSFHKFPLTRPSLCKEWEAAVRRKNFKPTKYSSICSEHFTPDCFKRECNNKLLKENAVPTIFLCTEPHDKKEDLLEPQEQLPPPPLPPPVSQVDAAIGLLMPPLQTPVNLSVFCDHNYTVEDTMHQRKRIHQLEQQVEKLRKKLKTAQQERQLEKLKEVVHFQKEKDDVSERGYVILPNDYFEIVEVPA

T10: THAP1 chemokine-binding domain/IgG1-Fc fusion constructed as described in Example 18B (THAP1 amino acids … (human, UniProt Q5RCE4 140-213 (Pongo abelii entry)))
T10 construct: Secreted with an immunoglobulin kappa light chain signal peptide (left out); also called Chemotrap-I; Chemotrap; not shown: human IgG1-Fc polypeptide from the N-terminal hinge region to the native C-terminus (hinge, CH2, CH3)
T10 sequence: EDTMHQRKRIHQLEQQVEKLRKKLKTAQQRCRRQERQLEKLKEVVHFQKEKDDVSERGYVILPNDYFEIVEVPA

B1: human prostate apoptosis response-4 (PAR4), full length (other)
chain: MATGGYRTSSGLGGSTTDFLEEWKAKREKMRAKQNPPGPAPPGGGSSDAAGKPPAGALGTPAAAAANELNNNLPGGAPAAPAVPGPGGVNCAVGSAMLTRAPPARGPRRSEDEPPAASASAAPPPQRDEEEPDGVPEKGKSSGPSARKGKGQIEKRKLREKRRSTGVVNIPAAECLDEYEDDEAGQKERKREDAITQQNTIQNEAVNLLDPGSSYLLQEPPRTVSGRYKSTTSVSEEDVSSRYSRTDRSGFPRYNRDANVSGTLVSSSTLEKKIEDLEKEVVTERQENLRLVRLMQDKEEMIGKLKEEIDLLNRDLDDIEDENEQLKQENKTLLKVVGQLTR
notes: Gal4-BD or Gal4-AD fusion in two-hybrid; also called Par4 wild type
B2: purified recombinant human Rantes/CCL5 (purchased from Chemicon) (ligand)
chain: SPYSSDTTPCCFAYIARPLPRAHIKEYFYTSGKCSNPAVVFVTRKNRQVCANPEKKWVREYINSLEMS
notes: Bought protein; also called recombinant Rantes/CCL5 human chemokine

How the values were obtained:
[1] = biological target: T1, human THAP1 …; experiment: yeast two-hybrid, both orientations
Method: To identify potential protein partners of THAP1, screening of the two-hybrid HEVEC cDNA library was performed using as a bait the human THAP1 full length cDNA inserted into the […] two-hybrid system 3 vector pGBKT7 (Clontech). Briefly, the full-length coding region of THAP1 was amplified by PCR from HEVEC cDNA with primers 2HMR10 (5′-[…]-3′) (SEQ ID NO: 187) and 2HMR9 (5′-[…]-3′) (SEQ ID NO: 188), digested with EcoRI and BamHI, and cloned in frame downstream of the Gal4 Binding Domain (Gal4-BD) in pGBKT7 vector to generate pGBKT7-THAP1. pGBKT7-THAP1 was then cotransformed with the pGAD424-HEVEC cDNA library in yeast strain AH109 (Clontech). 1.5×10⁷ yeast transformants were screened and positive protein interactions were selected by His and Ade double auxotrophy according to manufacturer's instructions ([…] two-hybrid system 3, Clontech). The plates were incubated at 30° C. for 5 days. Plasmid DNA was extracted from these positive colonies and used to verify the specificity of the interaction by cotransformation in AH109 with pGBKT7-THAP1 or control baits pGBKT7, pGBKT7-lamin and pGBKT7-hevin. […] Positive interaction between THAP1 and Par4 was confirmed using full length Par4 bait (pGBKT-Par4) and prey (pGADT7-Par4). […]

human THAP2, full length = biological target: T11, human THAP2, full length (human, UniProt Q9H0W7 1-228); experiment: yeast two-hybrid with Par-4 wild type bait
T11 construct: Two-hybrid fusion or 35S-labelled in vitro translation product
T11 sequence (Q9H0W7 whole entry, the tested form may be a part): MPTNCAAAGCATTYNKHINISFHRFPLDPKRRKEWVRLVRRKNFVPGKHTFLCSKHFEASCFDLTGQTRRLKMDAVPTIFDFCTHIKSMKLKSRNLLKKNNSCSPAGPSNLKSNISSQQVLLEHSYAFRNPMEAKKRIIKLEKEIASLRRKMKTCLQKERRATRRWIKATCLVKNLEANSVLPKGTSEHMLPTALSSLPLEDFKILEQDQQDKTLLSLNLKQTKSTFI
Method: (§1) To assess whether THAP2 and THAP3 are able to interact with Par-4, yeast two hybrid assays using Par-4 wild type bait (FIG. 10B) and in vitro GST pull down assays (FIG. 10C), were performed as described above (Examples 4 and 5). As shown in FIGS. 10B and 10C, THAP2 and THAP3 are able to interact with Par-4. A sequence alignment showing the comparison of the THAP domain and the PAR4-binding domain between THAP1, THAP2 and THAP3 is shown in FIG. 10A.

human THAP3, full length = biological target: T2, human THAP3, full length; experiment: yeast two-hybrid with Par-4 wild type bait
Method: as §1

[2] = biological target: T3, THAP1-C2 deletion mutant (amino acids …); experiment: yeast two-hybrid, Par4 wt bait
[3] = biological target: T4, THAP1-C3 deletion mutant (amino acids …); experiment: yeast two-hybrid, Par4 wt bait
[4] = biological target: T5, THAP1-N1 deletion mutant (amino acids …); experiment: yeast two-hybrid, Par4 wt bait
[5] = biological target: T6, THAP1-N2 deletion mutant (amino acids …); experiment: yeast two-hybrid, Par4 wt bait
[6] = biological target: T7, THAP1-N3 deletion mutant (amino acids …); experiment: yeast two-hybrid, Par4 wt bait
[7] = biological target: T8, THAP1-C1 deletion mutant (amino acids …); experiment: yeast two-hybrid, Par4 wt bait
[8] = biological target: T9, THAP1ΔQRCRR mutant (deletion of …); experiment: yeast two-hybrid, Par4 wt bait
Method: for mutant THAP1ΔQRCRR. The resulting PCR fragments were digested with EcoRI and BamHI, and cloned in frame downstream of the Gal4 Binding Domain (Gal4-BD) in pGBKT7 two-hybrid vector (Clontech) to generate pGBKT7-THAP1-RR/AA and -Δ(QRCRR), or downstream of the Enhanced Green Fluorescent Protein (EGFP)ORF in pEGFP.C2 vector (Clontech) to generate pEGFP.C2-THAP1-RR/AA and -Δ(QRCRR). THAP1RR/AA and THAP1ΔQRCRR THAP1 mutants were then tested in the three THAP1/Par4 interaction assays (two-hybrid assay, in vitro THAP1/Par4 interaction assay, in vivo THAP1/Par4 interaction assay) as described above for the THAP1-C1, -C2, -C3, -N1, -N2 or -N3 mutants.

[9] = biological target: T10, THAP1 chemokine-binding domain/IgG1-Fc …; experiment: SPR (Biacore 3000); Fc fusion amine-coupled to a C1 sensor chip, Rantes/CCL5 as analyte at 25, 50, 100 and 200 nM; KD=kd/ka
Excerpt: (§2) In this Example, surface plasmon resonance (SPR) was used to determine the dissociation constant for the binding of Rantes/CCL5 to a THAP1 chemokine binding domain/IgG1-Fc fusion prepared as described in Example 18B. All SPR measurements were made using a Biacore 3000 system (Biacore, Uppsala Sweden). […] Dextran layer free biosensors, C1 type, were used to assay specific interaction between Rantes/CCL5 and the THAP1 chemokine-binding domain/IgG1-Fc fusion. Purified recombinant human Rantes/CCL5 (purchased from Chemicon) were used as analyte protein at a fixed concentration in the fluid phase (10 mM HEPES pH 7.4, 150 mM NaCl, 3 mM EDTA, 0.005% P20 surfactant, as a running buffer), and at a constant flow of 20 μl/minute. To determine the binding kinetics, association and dissociation curves were established for several increasing concentration of chemokine: 25 nM, 50 nM, 100 nM and 200 nM for CCL5, respectively. Chemokine was injected during the association phase for 4 minutes (20 μl/minute). The dissociation phase was carried out over a period of 5 minutes. Between each phase of association-dissociation, the flow cells were regenerated by injection of 0.05% SDS (30 seconds at a flow rate of 20 μl/minute). Biaevaluation (Biacore) software was used for calculations of association and dissociation kinetic constants. […]
(§3) The dissociation constant was calculated to be 49 nM.

[10] = biological target: T10, THAP1 chemokine-binding domain/IgG1-Fc …; experiment: surface plasmon resonance (Biacore), Chemotrap-I coupled to the chip, CCL5/RANTES at 25, 50, 100 and 200 nM as analyte
Excerpt: as §2, §3

Binder | binding result [1] | binding result (human THAP2, full length) | binding result (human THAP3, full length) | binding result [2] | binding result [3] | binding result [4] | binding result [5] | binding result [6] | binding result [7] | binding result [8] | Kd [9] | koff [10] | kon [10]
B1 | binds | binds | binds | binds | binds | no binding | no binding | binds | binds | no binding |  |  | 
B2 |  |  |  |  |  |  |  |  |  |  | 49 nM | 0.00229 s⁻¹ | 46400 M⁻¹ s⁻¹

— patent US20060270596A1 (CENTRE NATIONAL DE LA RECHERCHE SCIENTIFIQUE CNRS, published 2006)
